Experimental data: patent US20220213165A1 (University of Texas, published 2022)
Square brackets hold non-standard residues; d marks the D form. Ends that are not written are not given here.

B1: TNYLFSPNGPIAR(dA)W (peptide)
peptide: TNYLFSPNGPIAR[dA]W
notes: also called TNYL-RAW with D-Ala at P14
B2: B4-001, Cyclo(KTNYLFSPNGPIARAWD) (peptide)
peptide: KTNYLFSPNGPIARAWD
modifications: not fully specified (bridges); printed as Cyclo(KTNYLFSPNGPIARAWD); also: cyclic, ring-closing atoms not given here
B3: B4-002, TNYLFSPNGPIA(dR)AW (peptide)
peptide: TNYLFSPNGPIARAW
modifications: D-Arg at position 13
B4: TNYLFSPNGPIAR (peptide)
peptide: TNYLFSPNGPIAR
notes: also called TNYL-RAW truncated of C-terminus Ala-Trp (P14-P15)
B5: B4-008, TNYLFSPNGPIARA (peptide)
peptide: TNYLFSPNGPIARA
notes: also called TNYL-RAW truncated of C-terminus Trp-P15
B6: TNYL-RAW (peptide)
peptide: TNYLFSPNGPIARAW
notes: also called EphB4 antagonist TNYL-RAW peptide
B7: TNYLFSPNGPIARA(dW) (peptide)
peptide: TNYLFSPNGPIARA[dW]
notes: also called TNYL-RAW with D-Trp at P15
B8: T(dN)YLFSPNGPIARAW (peptide)
peptide: T[dN]YLFSPNGPIARAW
notes: also called TNYL-RAW with D-Asn at P2
B9: BIDEN-AP (bi-directional ephrin agonist peptide), TN(dY)LFSPNGPIARAW (peptide)
peptide: TN[dY]LFSPNGPIARAW
notes: Synthetic 15-mer made by solid phase synthesis on Rink resin; also called EphB4 agonist peptide
B10: B4-004, TNY(dL)FSPNGPIARAW (peptide)
peptide: TNY[dL]FSPNGPIARAW
B11: B4-006, TNYLF(dS)PNGPIARAW (peptide)
peptide: TNYLF[dS]PNGPIARAW
B12: B4-005, TNYL(dF)SPNGPIARAW (peptide)
peptide: TNYL[dF]SPNGPIARAW
B13: NYLFSPNGPIARAW (peptide)
peptide: NYLFSPNGPIARAW
notes: also called TNYL-RAW truncated of N-terminus Thr-P1
B14: YLFSPNGPIARAW (peptide)
peptide: YLFSPNGPIARAW
notes: also called TNYL-RAW truncated of N-terminus Thr-Asn (P1-P2)

Columns and labels:
[1] = target: T1, recombinant human EphB4 (rhEphB4) (human, UniProt P54760 16-539, limits assumed); experiment: SPR (BIACore), peptide 1.6-800 nM injected over immobilized rhEphB4
T1 construct: Bought protein; also called purified EphB4; immobilized EphB4
T1 sequence (looked up): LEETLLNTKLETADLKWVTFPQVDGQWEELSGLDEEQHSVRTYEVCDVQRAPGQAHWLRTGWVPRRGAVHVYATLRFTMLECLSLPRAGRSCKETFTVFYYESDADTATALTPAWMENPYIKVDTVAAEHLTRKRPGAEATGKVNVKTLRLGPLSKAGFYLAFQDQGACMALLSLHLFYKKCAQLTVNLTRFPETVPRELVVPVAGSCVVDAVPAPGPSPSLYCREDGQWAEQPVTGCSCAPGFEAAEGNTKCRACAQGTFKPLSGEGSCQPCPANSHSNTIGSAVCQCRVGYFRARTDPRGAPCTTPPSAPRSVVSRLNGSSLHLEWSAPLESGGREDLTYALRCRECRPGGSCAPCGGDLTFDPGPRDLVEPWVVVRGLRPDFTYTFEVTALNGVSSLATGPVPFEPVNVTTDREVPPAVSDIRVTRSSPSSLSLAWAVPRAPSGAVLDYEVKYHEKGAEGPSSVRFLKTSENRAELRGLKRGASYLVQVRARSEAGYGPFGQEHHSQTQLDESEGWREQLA
Experimental: Peptides in concentrations of 1.6 nM to 800 nM were injected over the rhEphB4 sensor chips, and the magnitude of peptide binding to immobilized EphB4 in response units (RU) was recorded.
(§1) Surface plasmon resonance (SPR) binding and competition assays. A stock solution of EphB4 in PBS (100 μg/mL) was diluted to 25 μg/mL with 10 mM sodium acetate buffer (pH 4.5) and immobilized to CM5 sensor chips using the amine coupling reaction according to manufacturer-provided procedures (BIACore). Briefly, the surfaces of the chips in flow cells (FC)-1 and FC-2 were activated by exposing chips to a mixture of 200 mM N-ethyl-N′-dimethylaminopropyl carbodiimide and 50 mM N-hydroxysuccinimide for 7 min. FC-1 was used as a reference surface and was directly deactivated by injecting 1 M ethanolamine at pH 8.5 for 7 min. FC-2 was injected with 25 μg/mL human or murine EphB4 followed by injection of 1 M ethanolamine to block the remaining activated ester groups on the surface. The chips were allowed to stabilize for at least 2 h in HBSEP running buffer before injection of test analytes.

[2] = target: T1, recombinant human EphB4 (rhEphB4); experiment: SPR, peptide over immobilized EphB4
[3] = target: T1, recombinant human EphB4 (rhEphB4); experiment: SPR (BIACore), peptide 1.6-800 nM injected over immobilized rhEphB4; remark: listed apart in the source
Experimental: FIG. 10: BIACore sensorgrams of binding of truncated peptides to immobilized rhEphB4. Retention of a peptide on a sensor chip was indicated by a change in response units (RU) over the course of the 180-s injection interval followed by a 210-s washing interval. Peptides in concentrations of 1.6 nM to 800 nM were injected over the rhEphB4 sensor chip, and the magnitude of peptide binding to immobilized EphB4 was recorded.
as §1

[4] = target: T1, recombinant human EphB4 (rhEphB4); experiment: SPR competition: BIDEN-AP (2-1000 nM) mixed with human EphB4 (30 nM), injected on EFNB2-Fc-coated CM5 chip
[5] = target: T2, EphB4 on the surface of A2780cp20 cells (human, UniProt P54760 16-987); experiment: flow cytometry competition: A2780cp20 cells with EFNB2-Fc (20 nM) and BIDEN-AP (0-100 µM), PE-labeled anti-Fc detection
T2 construct: whole, on cells; also called EphB4 in human HeyA8 ovarian cancer cells; EphB4 in human ovarian cancer cells A2780cp20
T2 sequence (looked up): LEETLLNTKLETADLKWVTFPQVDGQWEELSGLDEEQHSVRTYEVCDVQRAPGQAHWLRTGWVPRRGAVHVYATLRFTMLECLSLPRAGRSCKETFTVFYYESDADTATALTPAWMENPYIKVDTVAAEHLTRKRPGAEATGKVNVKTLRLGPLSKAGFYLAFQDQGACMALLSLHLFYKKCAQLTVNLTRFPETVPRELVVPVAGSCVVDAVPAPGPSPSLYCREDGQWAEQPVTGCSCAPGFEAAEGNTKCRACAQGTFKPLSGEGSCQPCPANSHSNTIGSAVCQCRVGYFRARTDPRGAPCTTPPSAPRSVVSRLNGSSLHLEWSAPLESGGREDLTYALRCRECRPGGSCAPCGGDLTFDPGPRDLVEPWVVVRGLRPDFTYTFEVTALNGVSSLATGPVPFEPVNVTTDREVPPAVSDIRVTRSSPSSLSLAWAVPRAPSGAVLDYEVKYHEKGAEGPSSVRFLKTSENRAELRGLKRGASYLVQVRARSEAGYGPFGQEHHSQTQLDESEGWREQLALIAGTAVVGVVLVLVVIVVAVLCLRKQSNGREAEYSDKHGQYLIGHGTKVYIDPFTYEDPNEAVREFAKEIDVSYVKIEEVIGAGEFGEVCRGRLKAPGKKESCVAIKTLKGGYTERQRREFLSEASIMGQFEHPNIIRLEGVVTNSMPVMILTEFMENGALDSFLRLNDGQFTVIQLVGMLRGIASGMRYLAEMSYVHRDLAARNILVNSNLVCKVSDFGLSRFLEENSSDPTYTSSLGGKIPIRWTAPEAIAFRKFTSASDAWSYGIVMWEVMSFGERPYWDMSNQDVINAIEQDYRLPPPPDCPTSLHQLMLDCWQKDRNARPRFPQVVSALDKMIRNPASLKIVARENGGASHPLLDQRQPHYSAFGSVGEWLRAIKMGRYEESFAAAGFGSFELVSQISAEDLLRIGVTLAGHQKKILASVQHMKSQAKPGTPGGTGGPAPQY
Experimental: D-Tyr-P3 is highlighted in red. […] Vertical axes, in response units (RU), represent binding of the peptide to immobilized EphB4. […] Individual duplicates were performed in each condition. Data are presented as mean±SD.
Cell-based binding assay. […] Cells were analyzed in a Cellquest fluorocytometer (BD Bioscience, San Jose, Calif.). The experiments were run in duplicate.

[6] = target: T1, recombinant human EphB4 (rhEphB4); experiment: SPR, peptide over immobilized EphB4, 1:1 mass transfer interaction model
Experimental: as §1

Row | Binder | Kd [1] [nM] | Kd [2] [nM] | further results
1 | B1 | 43 | – | –
2 | B2 | – | 4.4 | –
3 | B3 | – | 39 | –
4 | B4 | – | – | Kd [3]: 192 nM
5 | B5 | – | 13 | Kd [3]: 60 nM
6 | B6 | – | 3.1 | –
7 | B7 | 8 | – | –
8 | B8 | 5 | – | –
9 | B9 | – | – | IC50 [4]: 4 nM; IC50 [5]: ~1000 nM; Kd [6]: 7 nM
10 | B10 | – | 65 | –
11 | B11 | 7700 | – | –
12 | B12 | 841 | 75 | –
13 | B13 | – | – | Kd [3]: 4.2 nM
14 | B14 | – | – | Kd [3]: 5.2 nM
